In US20050182242A1, “Global analysis of protein activities using proteome chips” (priority 2001, published 2005):

B1: Ypt31p: yeast protein with GTP-binding activity (protein, UniProt P38555 2-223, looked up)
GTP-binding protein YPT31/YPT8: SSEDYGYDYDLLFKIVLIGDSGVGKSNLLSRFTKNEFNMDSKSTIGVEFATRTLEIDGKRIKAQIWDTAGQERYRAITSAYYRGAVGALIVYDISKSSSYENCNHWLSELRENADDNVAVGLIGNKSDLAHLRAVPTEESKTFAQENQLLFTETSALNSENVDKAFEELINTIYQKVSKHQMDLGDSSANGNANGASAPNGPTISLTPTPNENKKANGNNCC
B2: Sqt1p: yeast protein that interacts with Rp110p (protein, UniProt P35184 1-431, looked up)
Ribosome assembly protein SQT1: MEPQEEFITTEEVEQEIVPTVEVEQDVPVDIEGENDDDDEMMNDDEEALEVDMSNNSLTYFDKHTDSVFAIGHHPNLPLVCTGGGDNLAHLWTSHSQPPKFAGTLTGYGESVISCSFTSEGGFLVTADMSGKVLVHMGQKGGAQWKLASQMQEVEEIVWLKTHPTIARTFAFGATDGSVWCYQINEQDGSLEQLMSGFVHQQDCSMGEFINTDKGENTLELVTCSLDSTIVAWNCFTGQQLFKITQAEIKGLEAPWISLSLAPETLTKGNSGVVACGSNNGLLAVINCNNGGAILHLSTVIELKPEQDELDASIESISWSSKFSLMAIGLVCGEILLYDTSAWRVRHKFVLEDSVTKLMFDNDDLFASCINGKVYQFNARTGQEKFVCVGHNMGVLDFILLHPVANTGTEQKRKVITAGDEGVSLVFEVPN
B3: Trm2p: yeast protein involved in DNA repair and RNA processing/modification (protein, UniProt P33753 1-639, looked up)
tRNA …: MYEQFEFSFFFFENSDNKVKYKAHLISSIKRWSIITCMRCFWTVQKSIFKARFFACRNFVKKHNYKLISTMTGSTEMVPPTMKHTVDNKRLSSPLTDSGNRRTKKPKLRKYKAKKVETTSPMGVLEFEVNDLLKSQNLSREQVLNDVTSILNDKSSTDGPIVLQYHREVKNVKVLEITSNGNGLALIDNPVETEKKQVVIIPFGLPGDVVNIKVFKTHPYYVESDLLDVVEKSPMRRDDLIRDKYFGKSSGSQLEFLTYDDQLELKRKTIMNAYKFFAPRLVAEKLLPPFDTTVASPLQFGYRTKITPHFDMPKRKQKELSVRPPLGFGQKGRPQWRKDTLDIGGHGSILDIDECVLATEVLNKGLTNERRKFEQEFKNYKKGATILLRENTTILDPSKPTLEQLTEEASRDENGDISYVEVEDKKNNVRLAKTCVTNPRQIVTEYVDGYTFNFSAGEFFQNNNSILPIVTKYVRDNLQAPAKGDDNKTKFLVDAYCGSGLFSICSSKGVDKVIGVEISADSVSFAEKNAKANGVENCRFIVGKAEKLFESIDTPSENTSVILDPPRKGCDELFLKQLAAYNPAKIIYISCNVHSQARDVEYFLKETENGSAHQIESIRGFDFFPQTHHVESVCIMKRI
B4: Rad51p: yeast DNA-repair protein (protein, UniProt P25454 1-400, looked up)
DNA repair protein RAD51: MSQVQEQHISESQLQYGNGSLMSTVPADLSQSVVDGNGNGSSEDIEATNGSGDGGGLQEQAEAQGEMEDEAYDEAALGSFVPIEKLQVNGITMADVKKLRESGLHTAEAVAYAPRKDLLEIKGISEAKADKLLNEAARLVPMGFVTAADFHMRRSELICLTTGSKNLDTLLGGGVETGSITELFGEFRTGKSQLCHTLAVTCQIPLDIGGGEGKCLYIDTEGTFRPVRLVSIAQRFGLDPDDALNNVAYARAYNADHQLRLLDAAAQMMSESRFSLIVVDSVMALYRTDFSGRGELSARQMHLAKFMRALQRLADQFGVAVVVTNQVVAQVDGGMAFNPDPKKPIGGNIMAHSSTTRLGFKKGKGCQRLCKVVDSPCLPEAECVFAIYEDGVGDPREEDE
B5: Ils1p: isoleucyl-tRNA synthetase (protein, UniProt P09436 1-1072, looked up)
Isoleucine--tRNA ligase, …: MSESNAHFSFPKEEEKVLSLWDEIDAFHTSLELTKDKPEFSFFDGPPFATGTPHYGHILASTIKDIVPRYATMTGHHVERRFGWDTHGVPIEHIIDKKLGITGKDDVFKYGLENYNNECRSIVMTYASDWRKTIGRLGRWIDFDNDYKTMYPSFMESTWWAFKQLHEKGQVYRGFKVMPYSTGLTTPLSNFEAQQNYKDVNDPAVTIGFNVIGQEKTQLVAWTTTPWTLPSNLSLCVNADFEYVKIYDETRDRYFILLESLIKTLYKKPKNEKYKIVEKIKGSDLVGLKYEPLFPYFAEQFHETAFRVISDDYVTSDSGTGIVHNAPAFGEEDNAACLKNGVISEDSVLPNAIDDLGRFTKDVPDFEGVYVKDADKLIIKYLTNTGNLLLASQIRHSYPFCWRSDTPLLYRSVPAWFVRVKNIVPQMLDSVMKSHWVPNTIKEKRFANWIANARDWNVSRNRYWGTPIPLWVSDDFEEVVCVGSIKELEELTGVRNITDLHRDVIDKLTIPSKQGKGDLKRIEEVFDCWFESGSMPYASQHYPFENTEKFDERVPANFISEGLDQTRGWFYTLAVLGTHLFGSVPYKNVIVSGIVLAADGRKMSKSLKNYPDPSIVLNKYGADALRLYLINSPVLKAESLKFKEEGVKEVVSKVLLPWWNSFKFLDGQIALLKKMSNIDFQYDDSVKSDNVMDRWILASMQSLVQFIHEEMGQYKLYTVVPKLLNFIDELTNWYIRFNRRRLKGENGVEDCLKALNSLFDALFTFVRAMAPFTPFLSESIYLRLKEYIPEAVLAKYGKDGRSVHFLSYPVVKKEYFDEAIETAVSRMQSVIDLGRNIREKKTISLKTPLKTLVILHSDESYLKDVEALKNYIIEELNVRDVVITSDEAKYGVEYKAVADWPVLGKKLKKDAKKVKDALPSVTSEQVREYLESGKLEVAGIELVKGDLNAIRGLPESAVQAGQETRTDQDVLIIMDTNIYSELKSEGLARELVNRIQKLRKKCGLEATDDVLVEYELVKDTIDFEAIVKEHFDMLSKTCRSDIAKYDGSKTDPIGDEEQSINDTIFKLKVFKL
B6: Spt2p: transcription factor, negative regulator of HO gene transcription (protein, UniProt P06843 2-333, looked up)
Protein SPT2: SFLSKLSQIRKSTTASKAQVQDPLPKKNDEEYSLLPKNYIRDEDPAVKRLKELRRQELLKNGALAKKSGVKRKRGTSSGSEKKKIERNDDDEGGLGIRFKRSIGASHAPLKPVVRKKPEPIKKMSFEELMKQAENNEKQPPKVKSSEPVTKERPHFNKPGFKSSKRPQKKASPGATLRGVSSGGNSIKSSDSPKPVKLNLPTNGFAQPNRRLKEKLESRKQKSRYQDDYDEEDNDMDDFIEDDEDEGYHSKSKHSNGPGYDRDEIWAMFNRGKKRSEYDYDELEDDDMEANEMEILEEEEMARKMARLEDKREEAWLKKHEEEKRRRKKGIR
B7: Met30p: yeast protein with five WD-repeats that binds certain promoter regions (protein, UniProt P39014 1-640, looked up)
F-box protein MET30: MRRERQRMMSFEDKDKDDLDNSNSNNSSEMTDTAMMPPLKRLLITGSSDDLAQGSSGKKKMTMATRSPSSSPDLATNDSGTRVQPLPEYNFTKFCYRHNPDIQFSPTHTACYKQDLKRTQEINANIAKLPLQEQSDIHHIISKYSNSNDKIRKLILDGILSTSCFPQLSYISSLVTHMIKIDFISILPQELSLKILSYLDCQSLCNATRVCRKWQKLADDDRVWYHMCEQHIDRKCPNCGWGLPLLHMKRARIQQNSTGSSSNADIQTQTTRPWKVIYRERFKVESNWRKGHCRIQEFKGHMDGVLTLQFNYRLLFTGSYDSTIGIWDLFTGKLIRRLSGHSDGVKTLYFDDRKLITGSLDKTIRVWNYITGECISTYRGHSDSVLSVDSYQKVIVSGSADKTVKVWHVESRTCYTLRGHTEWVNCVKLHPKSFSCFSCSDDTTIRMWDIRTNSCLKVFRGHVGQVQKIIPLTIKDVENLATDNTSDGSSPQDDPTMTDGADESDTPSNEQETVLDENIPYPTHLLSCGLDNTIKLWDVKTGKCIRTQFGHVEGVWDIAADNFRIISGSHDGSIKVWDLQSGKCMHTFNGRRLQRETQHTQTQSLGDKVAPIACVCIGDSECFSGDEFGCVKMYKFDLND
B8: Cdc1p: yeast DNA-repair protein (protein, UniProt P40986 1-491, looked up)
Cell division control protein …: MVYRNRSKSVLSTHSKKSDDKAHYKSRSKKKSKSRSKKRLRIYWRYISIVWILWLGLISYYESVVVKRAMKKCQWSTWEDWPEGAESHRVGLFADPQIMDEYSYPGRPQIVNYFTRVIVDHYHRRNWKYVQYYLDPDSNFFLGDLFDGGRNWDDKQWIKEYTRFNQIFPKKPLRRTVMSLPGNHDIGFGDTVVESSLQRFSSYFGETSSSLDAGNHTFVLLDTISLSDKTNPNVSRVPRQFLDNFAMGSHPLPRILLTHVPLWRDPEQQTCGQLRESKEPFPIQKGHQYQTVIENDISQEILTKIQPEILFSGDDHDHCQISHSYPFQGKTKNAQEITVKSCAMNMGISRPAIQLLSLYNPSDLTMVNAGGEYASKTYQTELCYMPDPYKAIRMYLWGLLFSAAFIAYMHFFPKSFNNRVATIMNRVFTRPDGNTSDLPLPTSISKSKSKKSLTHSKYAVNDTRSIKQFLVNAIVLFVSVMPIFIYFYTVV

What follows are molecules tested on total yeast genomic DNA (assay: Yeast proteome chip probed with labeled genomic DNA). Conditions: Cy3-labeled genomic DNA, visual inspection.
Assay type: binding
Description: Protein-DNA and protein-RNA interactions are important for many fundamental biological functions such as transcription regulation, chromosome segregation and maintenance, and RNA transport and processing (Williamson, 2000, Nat. Struct. Biol. 7(10):834-7). To explore the possibility of using a proteome chip to identify proteins that bind to DNA or RNA molecules, total yeast genomic DNA was labeled using Cy3-CTP and Klenow fragment, and polyA^+ was labeled using a biotinylated psoralen-derivative (31). Each probe was incubated with a different proteome chip (FIG. 3A).
The protein-nucleic acid interaction was assayed as follows. The nucleic acid robes were labeled as described by Winzeler et al. (1999, Science 285:901). Blocked proteome chips were washed three to five times in PBS buffer, and the extra liquid on the glass surface was removed by tapping the slides vertically on a KIMWIPE™. 200 μl of labeled nuclei acid probe ([…] poly(dC/dG); 100-300 mM NaCl; 50-300 mM HEPES, pH 7.0-8.5; 10 mM MgCl2) was added to the proteome chip and immediately covered by a hydrophobic plastic cover slip (GRACE BIO-LABS™, USA). After trapped air bubbles were removed, the chip was incubated in a humidity chamber in the dark at room temperature (“RT”) for one hour. To remove the cover slip, the chip was immersed into large volume of PBS buffer(>50 ml), so that the slip would float away. The chip was then moved to a second PBS bath (>50 ml) and washed 3×5 min with shaking in the dark at RT. To completely remove the liquid on the chip, the chip was spun to dryness at 1500-2000 rpm for 5-10 min at RT.
With B1 the “binding of genomic DNA probe” value was “bind the DNA probe”. B2 was tested, and the “binding of genomic DNA probe” value was “tested positive”. B3 was tested, and the “binding of genomic DNA probe” value was “identified”. With B4 the “binding of genomic DNA probe” value was “identified”. B5 was tested, and the “binding of genomic DNA probe” value was “identified”. With B6 the “binding of genomic DNA probe” value was “identified”. B7 was tested, and the “binding of genomic DNA probe” value was “identified”. With B8 the “binding of genomic DNA probe” value was “identified”.
